Measurements as given in US20250388597A1, “BIFUNCTIONAL PHOTOCROSSLINKING PROBES FOR COVALENT CAPTURE OF PROTEIN-NUCLEIC ACID COMPLEXES IN CELLS” (UNIVERSITY OF SOUTHERN CALIFORNIA, priority 2022, published 2025).

What was measured:
MEF2A DNA binding domain [1] = target: T1, MEF2A DNA binding domain (Homo sapiens, UniProt Q02078 Q02078:2-95); assay: 4AMT-SDAD + UV365 photocrosslinking, reversed by TCEP; conditions: chain copies: 2; label: 5'6-FAM
p53 DNA binding domain = p53 DNA binding domain (Homo sapiens, UniProt P04637 P04637:102-292); assay: SPB-AAD, SPB-PEG4-AAD or SPB-Spermidine-AD + UV365 photocrosslinking, SDS-PAGE; conditions: chain copies: 4 stated; label: 5'-Cy5
[2] = target: Nkx2.5 DNA binding domain (homeodomain) (Homo sapiens, UniProt P52952 P52952:138-197); assay: SPB-AAD, SPB-PEG4-AAD or SPB-Spermidine-AD + UV365 photocrosslinking, SDS-PAGE; none with formaldehyde or UV alone; conditions: label: 5'6-FAM
MEF2A DNA binding domain [3] = target: T1, MEF2A DNA binding domain; assay: SPB-AAD 100 uM + UV365 photocrosslinking, SDS-PAGE; no crosslink without probe; conditions: chain copies: 2; label: 5'6-FAM
NFAT1 DNA binding domain [4] = target: T2, NFAT1 DNA binding domain (Homo sapiens, UniProt Q13469 Q13469:399-676); assay: SPB-AAD 100 uM + UV365 photocrosslinking, SDS-PAGE
T2 sequence: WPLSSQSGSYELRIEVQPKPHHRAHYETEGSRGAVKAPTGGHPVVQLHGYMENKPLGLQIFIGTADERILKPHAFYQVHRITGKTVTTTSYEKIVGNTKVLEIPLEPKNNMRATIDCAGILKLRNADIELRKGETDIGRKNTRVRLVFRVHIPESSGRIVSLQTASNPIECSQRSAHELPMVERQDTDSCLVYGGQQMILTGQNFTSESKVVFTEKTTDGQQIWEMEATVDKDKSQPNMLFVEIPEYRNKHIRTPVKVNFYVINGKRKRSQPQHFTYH
Description: The UV illumination (as indicated by a positive sign) was carried out using a LED Chip (21.4 mm×21.4 mm, 365-370 nm, 30 Watt, sample distance 2 cm, exposure time 2-15 min at 4 degree C., here the exposure time is 15 min). Half of the binding reaction (7.5 μl) was run on a 10% PAGE 0.5×TBE gel and visualized by Cy5 fluorescence on DNA. The small amount of single stranded DNA is due to incomplete annealing. The higher smearing bands are most likely non-specific protein complexes. Neither of these experimental imperfections affected the main conclusion of this experiment because the double stranded-DNA bands and the specific NFAT-DNA complex bands (the middle sharp bands) are well defined and can be monitored without the interference of the other bands.
(§1) FIG. 12D depicts the other half of binding reaction from the above experiments (FIG. 12C) were added SDS loading dye (2% SDS), boil for 10 min, and run on SDS gel (4-15% gradient gel). The gel was visualized by Cy5 fluorescence for DNA.
FIG. 12E depicts further characterization of BFPX crosslinking of NFAT1/DNA complexes using different DNA substrates and staining techniques. […] The reactions were then analyzed by SDS PAGE under denaturing condition as described in FIG. 12D. […]

NFAT1 DNA binding domain [5] = target: T2, NFAT1 DNA binding domain; assay: EMSA; 20 mM Hepes pH 7.6, 150 mM NaCl, 1 mM DTT, 12% glycerol, RT; formaldehyde diminished binding, BFPX probes did not; also photocrosslinked; conditions: label: 5'-Cy5 (or 5'6-FAM)
Description: FIG. 12C depicts Native EMSA assay of the effect of Formaldehyde (FA), BFPX probe (SPB-AAD, SPB-PEG4-AAD, and SPB-Spermidine-AD) at various concentrations, and UVA (365 nm) on the DNA binding by NFAT1. The binding reactions were performed in a buffer of 20 mM Hepes pH 7.6, 150 mM NaCl, 1 mM DTT, 12% glycerol. Typically protein and DNA are mixed to bind at room temperature for 30 min, followed by addition of BFPX probes for an additional 15 min and then UV illumination. In the case of FA treatment, the reaction time is 10 min at room temperature and then quenched by 250 mM glycine. […] Half of the binding reaction (7.5 μl) was run on a 10% PAGE 0.5×TBE gel and visualized by Cy5 fluorescence on DNA. […] Neither of these experimental imperfections affected the main conclusion of this experiment because the double stranded-DNA bands and the specific NFAT-DNA complex bands (the middle sharp bands) are well defined and can be monitored without the interference of the other bands.
as §1

T1 sequence (Q02078 2-95, one chain of several): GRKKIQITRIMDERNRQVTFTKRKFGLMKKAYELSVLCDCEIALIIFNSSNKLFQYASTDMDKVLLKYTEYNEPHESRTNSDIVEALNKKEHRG
p53 DNA binding domain, sequence (P04637 102-292, one chain of several): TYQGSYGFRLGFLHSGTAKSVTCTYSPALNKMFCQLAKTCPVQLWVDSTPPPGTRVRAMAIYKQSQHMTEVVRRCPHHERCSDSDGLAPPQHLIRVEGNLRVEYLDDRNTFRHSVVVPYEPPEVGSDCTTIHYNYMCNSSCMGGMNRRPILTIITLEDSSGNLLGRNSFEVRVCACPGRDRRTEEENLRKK
Nkx2.5 DNA binding domain (homeodomain), sequence (P52952 138-197, one chain of several): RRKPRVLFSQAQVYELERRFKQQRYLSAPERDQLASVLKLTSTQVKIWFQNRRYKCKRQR

B1: MEF2 site 16-mer (only the core site printed) (dsDNA)
DNA 1: CTATAAATAG
DNA 2: CTATTTATAG
binding result (MEF2A DNA binding domain [1]): binds

B2: p53 tetramer site 37-mer (dsDNA)
DNA 1: GCTAGCGTAGCAGGCATGCCTAGGCATGCCTGCTACG
DNA 2: CGTAGCAGGCATGCCTAGGCATGCCTGCTACGCTAGC
binding result (p53 DNA binding domain): binds

B3: Nkx2.5 site 19-mer (dsDNA)
DNA 1: ACTATTTTAAGAACGTGCT
DNA 2: AGCACGTTCTTAAAATAGT
binding result [2]: binds

B4: MEF2 consensus site DNA (44-mer; only the core site printed) (dsDNA)
DNA 1: CTATAAATAG
DNA 2: CTATTTATAG
binding result (MEF2A DNA binding domain [3]): binds

B5: c2 NFAT 16-mer (dsDNA)
DNA 1: GTAGAGGAATTTCCTA
DNA 2: TAGGAAATTCCTCTAC
binding result (NFAT1 DNA binding domain [4]): binds

B6: ARRE2 27-mer (dsDNA)
DNA 1: CCATAGAGGAAAATTTGTTTCATACAG
DNA 2: CTGTATGAAACAAATTTTCCTCTATGG
binding result (NFAT1 DNA binding domain [5]): binds
